# The supplement of paper PMC10567573
# B1: RSPH3 (parent)
# chain: VDVQTELYLEEIADRIIEVDMECQ
# Variants of: B1
# Assay: protein stability index of a GFP-peptide fusion (GPS, HEK-293T) (PSI 1-6); higher = more stable
# Details: c terminus: a fixed tail appended
# 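Also: lentivirally expressed fusions sorted by FACS into six bins by GFP to DsRed ratio, PSI derived from sequencing read proportions per bin multiplied by bin number.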
row,Variant,protein stability index
1,VDVQTELYLEFIADRIIEVDMECQ [E11F],1.89
2,VDVQTELYLEGIADRIIEVDMECQ [E11G],2.48
3,VDVQTELYLEHIADRIIEVDMECQ [E11H],2.23
4,VDVQTELYLEIIADRIIEVDMECQ [E11I],3.16
5,VDVQTELYLEKIADRIIEVDMECQ [E11K],2.85
6,VDVQTELYLEMIADRIIEVDMECQ [E11M],3.38
7,VDVQTELYLENIADRIIEVDMECQ [E11N],3.26
8,VDVQTELYLEPIADRIIEVDMECQ [E11P],2.98
9,VDVQTELYLEQIADRIIEVDMECQ [E11Q],2.73
10,VDVQTELYLERIADRIIEVDMECQ [E11R],2.22
11,VDVQTELYLESIADRIIEVDMECQ [E11S],2.02
12,VDVQTELYLETIADRIIEVDMECQ [E11T],2.41
13,VDVQTELYLEYIADRIIEVDMECQ [E11Y],2.88
14,VDVQTELYLEEAADRIIEVDMECQ [I12A],4.36
15,VDVQTELYLEECADRIIEVDMECQ [I12C],3.22
16,VDVQTELYLEEDADRIIEVDMECQ [I12D],4.39
17,VDVQTELYLEEEADRIIEVDMECQ [I12E],4.84
18,VDVQTELYLEEFADRIIEVDMECQ [I12F],1.61
19,VDVQTELYLEEGADRIIEVDMECQ [I12G],4.63
20,VDVQTELYLEEHADRIIEVDMECQ [I12H],4.28
21,VDVQTELYLEEKADRIIEVDMECQ [I12K],4.77
22,VDVQTELYLEELADRIIEVDMECQ [I12L],1.72
23,VDVQTELYLEEMADRIIEVDMECQ [I12M],3.11
24,VDVQTELYLEENADRIIEVDMECQ [I12N],4.46

row,Variant,protein stability index
1,VDVQTELYLEEPADRIIEVDMECQ [I12P],4.53
2,VDVQTELYLEEQADRIIEVDMECQ [I12Q],4.37
3,VDVQTELYLEERADRIIEVDMECQ [I12R],4.25
4,VDVQTELYLEESADRIIEVDMECQ [I12S],4.98
5,VDVQTELYLEETADRIIEVDMECQ [I12T],4.42
6,VDVQTELYLEEVADRIIEVDMECQ [I12V],2.91
7,VDVQTELYLEEWADRIIEVDMECQ [I12W],1.12
8,VDVQTELYLEEYADRIIEVDMECQ [I12Y],2.96
9,VDVQTELYLEEICDRIIEVDMECQ [A13C],2.31
10,VDVQTELYLEEIDDRIIEVDMECQ [A13D],3.9
11,VDVQTELYLEEIEDRIIEVDMECQ [A13E],2.87
12,VDVQTELYLEEIFDRIIEVDMECQ [A13F],2.41
13,VDVQTELYLEEIGDRIIEVDMECQ [A13G],2.95
14,VDVQTELYLEEIHDRIIEVDMECQ [A13H],2.5
15,VDVQTELYLEEIIDRIIEVDMECQ [A13I],2.22
16,VDVQTELYLEEIKDRIIEVDMECQ [A13K],3.05
17,VDVQTELYLEEIMDRIIEVDMECQ [A13M],1.58
18,VDVQTELYLEEINDRIIEVDMECQ [A13N],3.2
19,VDVQTELYLEEIPDRIIEVDMECQ [A13P],3.53
20,VDVQTELYLEEIQDRIIEVDMECQ [A13Q],3.05
21,VDVQTELYLEEIRDRIIEVDMECQ [A13R],2.27
22,VDVQTELYLEEISDRIIEVDMECQ [A13S],2.57
23,VDVQTELYLEEITDRIIEVDMECQ [A13T],2.62
24,VDVQTELYLEEIVDRIIEVDMECQ [A13V],2.17

row,Variant,protein stability index
1,VDVQTELYLEEIWDRIIEVDMECQ [A13W],1.65
2,VDVQTELYLEEIYDRIIEVDMECQ [A13Y],1.53
3,VDVQTELYLEEIAARIIEVDMECQ [D14A],1.94
4,VDVQTELYLEEIAERIIEVDMECQ [D14E],1.92
5,VDVQTELYLEEIAHRIIEVDMECQ [D14H],1.55
6,VDVQTELYLEEIAKRIIEVDMECQ [D14K],1.93
7,VDVQTELYLEEIANRIIEVDMECQ [D14N],2.11
8,VDVQTELYLEEIAPRIIEVDMECQ [D14P],2.45
9,VDVQTELYLEEIAQRIIEVDMECQ [D14Q],2.32
10,VDVQTELYLEEIASRIIEVDMECQ [D14S],2.08
11,VDVQTELYLEEIATRIIEVDMECQ [D14T],1.93
12,VDVQTELYLEEIAWRIIEVDMECQ [D14W],3.47
13,VDVQTELYLEEIADAIIEVDMECQ [R15A],2.55
14,VDVQTELYLEEIADCIIEVDMECQ [R15C],1.54
15,VDVQTELYLEEIADDIIEVDMECQ [R15D],3.17
16,VDVQTELYLEEIADEIIEVDMECQ [R15E],3.55
17,VDVQTELYLEEIADFIIEVDMECQ [R15F],2.31
18,VDVQTELYLEEIADGIIEVDMECQ [R15G],3.14
19,VDVQTELYLEEIADHIIEVDMECQ [R15H],2.77
20,VDVQTELYLEEIADKIIEVDMECQ [R15K],3.1
21,VDVQTELYLEEIADMIIEVDMECQ [R15M],2.24
22,VDVQTELYLEEIADNIIEVDMECQ [R15N],3.66
23,VDVQTELYLEEIADPIIEVDMECQ [R15P],3.73
24,VDVQTELYLEEIADQIIEVDMECQ [R15Q],3.58

row,Variant,protein stability index
1,VDVQTELYLEEIADSIIEVDMECQ [R15S],3.16
2,VDVQTELYLEEIADTIIEVDMECQ [R15T],2.56
3,VDVQTELYLEEIADVIIEVDMECQ [R15V],2.65
4,VDVQTELYLEEIADWIIEVDMECQ [R15W],3.01
5,VDVQTELYLEEIADYIIEVDMECQ [R15Y],2.79
6,VDVQTELYLEEIADRAIEVDMECQ [I16A],3.63
7,VDVQTELYLEEIADRCIEVDMECQ [I16C],2.85
8,VDVQTELYLEEIADRDIEVDMECQ [I16D],4.54
9,VDVQTELYLEEIADREIEVDMECQ [I16E],4.48
10,VDVQTELYLEEIADRFIEVDMECQ [I16F],1.87
11,VDVQTELYLEEIADRGIEVDMECQ [I16G],4.3
12,VDVQTELYLEEIADRHIEVDMECQ [I16H],4.19
13,VDVQTELYLEEIADRKIEVDMECQ [I16K],4.49
14,VDVQTELYLEEIADRMIEVDMECQ [I16M],2.36
15,VDVQTELYLEEIADRPIEVDMECQ [I16P],4.93
16,VDVQTELYLEEIADRQIEVDMECQ [I16Q],4.18
17,VDVQTELYLEEIADRRIEVDMECQ [I16R],3.23
18,VDVQTELYLEEIADRTIEVDMECQ [I16T],4.19
19,VDVQTELYLEEIADRVIEVDMECQ [I16V],3.37
20,VDVQTELYLEEIADRWIEVDMECQ [I16W],2.97
21,VDVQTELYLEEIADRYIEVDMECQ [I16Y],2.57
22,VDVQTELYLEEIADRIAEVDMECQ [I17A],2.41
